Measurements published in article PMC7954794, “Protein context shapes the specificity of SH3 domain-mediated interactions in vivo” (Nature Communications, 2021).

Legend:
Format in all cases: cell-based, Saccharomyces cerevisiae
Hua2 = assay: Deep mutational scanning of Abp1 SH3, Abp1-Hua2 DHFR-PCA (DMS score); conditions: for HUA2_MTX2 (frequency normalized to the reference condition): Abp1 SH3 amino acid mutation, MTX2; for HUA2_MTX2: Abp1-Hua2 DHFR-PCA, frequencies normalized to the reference condition, amino acid level; for HUA2_MTX2 = frequencies normalized to the reference condition: Hua2, MTX2, amino acid format; for hua2sc = Frequencies scaled to the synonymous mutation distribution (DMS score): Hua2
In short: (§1)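 Each SH3 position is mutated to all possible codons within endogenous ABP1; the pooled strains are crossed to DHFR F[3]-tagged partners, diploids are enriched in NAT/HPH media, and two 72 h complementation selections at 30 °C follow, with Illumina counts of the locus yielding the score.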

Hua2 and Lsb3 [1] = assay: Deep mutational scanning quadrant of Abp1 SH3 (Hua2 and Lsb3 DMS scores); conditions: class of mutation by HUA2 and LSB3 DMS scores
Lsb3 = assay: Deep mutational scanning of Abp1 SH3, Abp1-Lsb3 DHFR-PCA (DMS score); conditions: for LSB3_MTX2 (frequency normalized to the reference condition): Abp1 SH3 amino acid mutation, MTX2; for LSB3_MTX2: Abp1-Lsb3 DHFR-PCA, frequencies normalized to the reference condition, amino acid level; for LSB3_MTX2 = frequencies normalized to the reference condition: Lsb3, MTX2, amino acid format; for lsb3sc = Frequencies scaled to the synonymous mutation distribution (DMS score): Lsb3
In short: as §1

Hua2 and Lsb3 [2] = assay: Deep mutational scanning of Abp1 SH3, quadrant classification from Hua2 and Lsb3 DMS scores; conditions: class from hua2sc and lsb3sc
Hua2 and Lsb3 [3] = assay: Deep mutational scanning of Abp1 SH3, quadrant by Hua2 and Lsb3 DMS scores
[4] = frequencies scaled to the synonymous mutation distribution, HUA2 prey
[5] = frequencies scaled to the synonymous mutation distribution, LSB3 prey
[6] = Abp1-Hua2, frequencies scaled to the synonymous mutation distribution (DMS score)
[7] = Abp1-Lsb3, frequencies scaled to the synonymous mutation distribution (DMS score)

Molecule	HUA2_MTX2 (frequency normalized to the reference condition) (Hua2; HUA2 prey)	hua2sc (DMS score) (Hua2; [4])	quadrant (Hua2 and Lsb3 [1])	LSB3_MTX2 (frequency normalized to the reference condition) (Lsb3; LSB3 prey)	lsb3sc (DMS score) (Lsb3; [5])	hua2sc (DMS score) (Hua2; [6])	HUA2_MTX2 (Hua2)	lsb3sc (DMS score) (Lsb3; [7])	LSB3_MTX2 (Lsb3)	quadrant (Hua2 and Lsb3 [2])	HUA2_MTX2 = frequencies normalized to the reference condition (Hua2)	hua2sc = Frequencies scaled to the synonymous mutation distribution (DMS score) (Hua2)	quadrant (Hua2 and Lsb3 [3])	LSB3_MTX2 = frequencies normalized to the reference condition (Lsb3)	lsb3sc = Frequencies scaled to the synonymous mutation distribution (DMS score) (Lsb3)
ABP1 A3A (protein, UniProt P15891 2-592, looked up, synonymous A3A codon) Actin-binding protein: ALEPIDYTTHSREIDAEYLKIVRGSDPDTTWLIISPNAKKEYEPESTGSSFHDFLQLFDETKVQYGLARVSPPGSDVEKIIIIGWCPDSAPLKTRASFAANFAAVANNLFKGYHVQVTARDEDDLDENELLMKISNAAGARYSIQTSSKQQGKASTPPVKKSFTPSKSPAPVSKKEPVKTPSPAPAAKISSRVNDNNDDDDWNEPELKERDFDQAPLKPNQSSYKPIGKIDLQKVIAEEKAKEDPRLVQKPTAAGSKIDPSSDIANLKNESKLKRDSEFNSFLGTTKPPSMTESSLKNDDDKVIKGFRNEKSPAQLWAERKAKQNSGNAETKAEAPKPEVPEDEPEGEPDVKDLKSKFEGLAASEKEEEEMENKFAPPPKKSEPTIISPKPFSKPQEPVKAEEAEQPKTDYKKIGNPLPGMHIEADNEEEPEENDDDWDDDEDEAAQPPLPSRNVASGAPVQKEEPEQEEIAPSLPSRNSIPAPKQEEAPEQAPEEEIEEEAEEAAPQLPSRSSAAPPPPPRRATPEKKPKENPWATAEYDYDAAEDNELTFVENDKIINIEFVDDDWWLGELEKDGSKGLFPSNYVSLGN	1.172	-0.4405	Neutral	1.292	-0.2087										
ABP1 K42K (protein, UniProt P15891 2-592, looked up, synonymous codon K42K) Actin-binding protein: ALEPIDYTTHSREIDAEYLKIVRGSDPDTTWLIISPNAKKEYEPESTGSSFHDFLQLFDETKVQYGLARVSPPGSDVEKIIIIGWCPDSAPLKTRASFAANFAAVANNLFKGYHVQVTARDEDDLDENELLMKISNAAGARYSIQTSSKQQGKASTPPVKKSFTPSKSPAPVSKKEPVKTPSPAPAAKISSRVNDNNDDDDWNEPELKERDFDQAPLKPNQSSYKPIGKIDLQKVIAEEKAKEDPRLVQKPTAAGSKIDPSSDIANLKNESKLKRDSEFNSFLGTTKPPSMTESSLKNDDDKVIKGFRNEKSPAQLWAERKAKQNSGNAETKAEAPKPEVPEDEPEGEPDVKDLKSKFEGLAASEKEEEEMENKFAPPPKKSEPTIISPKPFSKPQEPVKAEEAEQPKTDYKKIGNPLPGMHIEADNEEEPEENDDDWDDDEDEAAQPPLPSRNVASGAPVQKEEPEQEEIAPSLPSRNSIPAPKQEEAPEQAPEEEIEEEAEEAAPQLPSRSSAAPPPPPRRATPEKKPKENPWATAEYDYDAAEDNELTFVENDKIINIEFVDDDWWLGELEKDGSKGLFPSNYVSLGN						-0.1876	1.425	0.08611	1.586	Neutral					
ABP1 G44G (protein, UniProt P15891 2-592, looked up, synonymous codon change G44G) Actin-binding protein: ALEPIDYTTHSREIDAEYLKIVRGSDPDTTWLIISPNAKKEYEPESTGSSFHDFLQLFDETKVQYGLARVSPPGSDVEKIIIIGWCPDSAPLKTRASFAANFAAVANNLFKGYHVQVTARDEDDLDENELLMKISNAAGARYSIQTSSKQQGKASTPPVKKSFTPSKSPAPVSKKEPVKTPSPAPAAKISSRVNDNNDDDDWNEPELKERDFDQAPLKPNQSSYKPIGKIDLQKVIAEEKAKEDPRLVQKPTAAGSKIDPSSDIANLKNESKLKRDSEFNSFLGTTKPPSMTESSLKNDDDKVIKGFRNEKSPAQLWAERKAKQNSGNAETKAEAPKPEVPEDEPEGEPDVKDLKSKFEGLAASEKEEEEMENKFAPPPKKSEPTIISPKPFSKPQEPVKAEEAEQPKTDYKKIGNPLPGMHIEADNEEEPEENDDDWDDDEDEAAQPPLPSRNVASGAPVQKEEPEQEEIAPSLPSRNSIPAPKQEEAPEQAPEEEIEEEAEEAAPQLPSRSSAAPPPPPRRATPEKKPKENPWATAEYDYDAAEDNELTFVENDKIINIEFVDDDWWLGELEKDGSKGLFPSNYVSLGN											1.505	-0.1077	Neutral	1.253	-0.247
ABP1 L37L (protein, UniProt P15891 2-592, looked up, synonymous codon change L37L in SH3) Actin-binding protein: ALEPIDYTTHSREIDAEYLKIVRGSDPDTTWLIISPNAKKEYEPESTGSSFHDFLQLFDETKVQYGLARVSPPGSDVEKIIIIGWCPDSAPLKTRASFAANFAAVANNLFKGYHVQVTARDEDDLDENELLMKISNAAGARYSIQTSSKQQGKASTPPVKKSFTPSKSPAPVSKKEPVKTPSPAPAAKISSRVNDNNDDDDWNEPELKERDFDQAPLKPNQSSYKPIGKIDLQKVIAEEKAKEDPRLVQKPTAAGSKIDPSSDIANLKNESKLKRDSEFNSFLGTTKPPSMTESSLKNDDDKVIKGFRNEKSPAQLWAERKAKQNSGNAETKAEAPKPEVPEDEPEGEPDVKDLKSKFEGLAASEKEEEEMENKFAPPPKKSEPTIISPKPFSKPQEPVKAEEAEQPKTDYKKIGNPLPGMHIEADNEEEPEENDDDWDDDEDEAAQPPLPSRNVASGAPVQKEEPEQEEIAPSLPSRNSIPAPKQEEAPEQAPEEEIEEEAEEAAPQLPSRSSAAPPPPPRRATPEKKPKENPWATAEYDYDAAEDNELTFVENDKIINIEFVDDDWWLGELEKDGSKGLFPSNYVSLGN						-0.0161	1.597	0.2222	1.722	Neutral					
ABP1 S45S (protein, UniProt P15891 2-592, looked up, synonymous S45S codon change in SH3 domain) Actin-binding protein: ALEPIDYTTHSREIDAEYLKIVRGSDPDTTWLIISPNAKKEYEPESTGSSFHDFLQLFDETKVQYGLARVSPPGSDVEKIIIIGWCPDSAPLKTRASFAANFAAVANNLFKGYHVQVTARDEDDLDENELLMKISNAAGARYSIQTSSKQQGKASTPPVKKSFTPSKSPAPVSKKEPVKTPSPAPAAKISSRVNDNNDDDDWNEPELKERDFDQAPLKPNQSSYKPIGKIDLQKVIAEEKAKEDPRLVQKPTAAGSKIDPSSDIANLKNESKLKRDSEFNSFLGTTKPPSMTESSLKNDDDKVIKGFRNEKSPAQLWAERKAKQNSGNAETKAEAPKPEVPEDEPEGEPDVKDLKSKFEGLAASEKEEEEMENKFAPPPKKSEPTIISPKPFSKPQEPVKAEEAEQPKTDYKKIGNPLPGMHIEADNEEEPEENDDDWDDDEDEAAQPPLPSRNVASGAPVQKEEPEQEEIAPSLPSRNSIPAPKQEEAPEQAPEEEIEEEAEEAAPQLPSRSSAAPPPPPRRATPEKKPKENPWATAEYDYDAAEDNELTFVENDKIINIEFVDDDWWLGELEKDGSKGLFPSNYVSLGN											1.852	0.2394	Neutral	1.916	0.4157
ABP1 T4T (protein, UniProt P15891 2-592, looked up, synonymous T4T codon change) Actin-binding protein: ALEPIDYTTHSREIDAEYLKIVRGSDPDTTWLIISPNAKKEYEPESTGSSFHDFLQLFDETKVQYGLARVSPPGSDVEKIIIIGWCPDSAPLKTRASFAANFAAVANNLFKGYHVQVTARDEDDLDENELLMKISNAAGARYSIQTSSKQQGKASTPPVKKSFTPSKSPAPVSKKEPVKTPSPAPAAKISSRVNDNNDDDDWNEPELKERDFDQAPLKPNQSSYKPIGKIDLQKVIAEEKAKEDPRLVQKPTAAGSKIDPSSDIANLKNESKLKRDSEFNSFLGTTKPPSMTESSLKNDDDKVIKGFRNEKSPAQLWAERKAKQNSGNAETKAEAPKPEVPEDEPEGEPDVKDLKSKFEGLAASEKEEEEMENKFAPPPKKSEPTIISPKPFSKPQEPVKAEEAEQPKTDYKKIGNPLPGMHIEADNEEEPEENDDDWDDDEDEAAQPPLPSRNVASGAPVQKEEPEQEEIAPSLPSRNSIPAPKQEEAPEQAPEEEIEEEAEEAAPQLPSRSSAAPPPPPRRATPEKKPKENPWATAEYDYDAAEDNELTFVENDKIINIEFVDDDWWLGELEKDGSKGLFPSNYVSLGN	1.763	0.1499	Neutral	1.639	0.1386										
